Target: biotinylated Aβ1-28 peptide
Assay: ELISA, biotinylated peptide (Anaspec) on streptavidin plate, 10 µg/ml mAb
Conditions: remark: other sources report otherwise

Chain of biotinylated Aβ1-28 peptide (chain, as listed by the source): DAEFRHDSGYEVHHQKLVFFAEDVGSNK

O.D. after background subtraction (mean): 0.53 O.D.
B1: mouse monoclonal antibody ACI-11-Ab-9 (antibody, V domains shown)
VL: QAVVTQESALTTSPGGTVILTCRSSTGAVTTSNYANWVQEKPDHLFTGLIGGTSNRAPGVPVRFSGSLIGDKAALTITGAQTEDDAMYFCALWYSTHYVFGGGTKVTVL
VH: QVQLQQSDAELVKPGASVKISCKVSGYTFTDHTIHWMKQRPEQGLEWIGYIYPRDGSTKYNEKFKGKATLTADKSSSTAYMQLNSLTSEDSAVYFCARDYGYAFDYWGQGTTLTVSS
modifications: here or on the partner: biotinylated (position not given)

Source: patent US20160000910A1
